# The supplement of paper PMC10065799, “High-throughput profiling of sequence recognition by tyrosine kinases and SH2 domains using bacterial peptide display” (eLife, 2023)
# Molecular target: EPHB2 (UniProt P29323)
# Test: phosphorylation enrichment, bacterial display (enrichment ratio); higher = better substrate or ligand; peptides without Tyr show the background
# 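Also: 11-residue human phosphosite peptides and single-mutation variants displayed on the E. coli surface, counted by deep sequencing, each peptide's frequency after selection divided by its frequency in the unselected input library; frequency after pTyr selection over input frequency; kinase dosed for 20-30% of maximal phosphorylation in three min.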
# Chain of EPHB2 (P29323 whole entry, looked up): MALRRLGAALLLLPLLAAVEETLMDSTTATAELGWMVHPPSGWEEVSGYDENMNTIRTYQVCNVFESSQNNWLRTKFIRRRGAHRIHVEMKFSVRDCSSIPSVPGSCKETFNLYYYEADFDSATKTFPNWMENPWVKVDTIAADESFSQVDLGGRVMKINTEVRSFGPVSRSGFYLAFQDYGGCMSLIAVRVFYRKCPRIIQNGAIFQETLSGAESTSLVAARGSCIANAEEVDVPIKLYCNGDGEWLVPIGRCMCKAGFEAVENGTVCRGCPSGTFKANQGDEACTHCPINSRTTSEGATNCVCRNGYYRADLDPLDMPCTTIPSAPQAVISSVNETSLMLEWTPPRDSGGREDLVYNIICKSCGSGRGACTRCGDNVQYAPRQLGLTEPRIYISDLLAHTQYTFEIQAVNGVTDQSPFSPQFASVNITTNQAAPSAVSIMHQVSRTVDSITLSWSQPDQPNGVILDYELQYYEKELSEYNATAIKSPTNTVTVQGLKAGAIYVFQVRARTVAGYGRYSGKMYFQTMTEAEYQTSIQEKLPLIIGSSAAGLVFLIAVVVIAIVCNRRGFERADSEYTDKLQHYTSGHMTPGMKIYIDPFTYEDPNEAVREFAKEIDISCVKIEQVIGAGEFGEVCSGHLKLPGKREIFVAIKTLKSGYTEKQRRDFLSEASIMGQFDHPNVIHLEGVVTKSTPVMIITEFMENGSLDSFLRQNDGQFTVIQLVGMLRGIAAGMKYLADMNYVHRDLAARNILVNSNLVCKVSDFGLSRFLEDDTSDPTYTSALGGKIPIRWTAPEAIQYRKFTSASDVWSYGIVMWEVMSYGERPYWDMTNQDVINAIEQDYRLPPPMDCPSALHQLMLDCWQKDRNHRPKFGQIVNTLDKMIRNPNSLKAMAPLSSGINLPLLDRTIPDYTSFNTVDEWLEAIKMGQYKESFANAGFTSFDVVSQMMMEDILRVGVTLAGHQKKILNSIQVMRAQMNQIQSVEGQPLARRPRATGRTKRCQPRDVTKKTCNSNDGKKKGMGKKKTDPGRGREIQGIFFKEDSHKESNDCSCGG
row,Sequence,phosphorylation enrichment
1,LEVETYRRLLD [KRT12_Y429_I426V],0.407
2,KGKLIYLLRDS [NXPE1_Y350_G353R],0.447
3,AAVLNYKAGRD [GRIN2A_Y737],0.33
4,QVMDGYPIPIG [MMP14_Y353_M355I],0.755
5,CSHKFYGKQCC [ADAMTS16_Y1211],0.477
6,MHDSNYVSKGS [PDGFRA_Y849],0.416
7,KDLPNYNWKSF [KISS1_Y112_N115K],0.529
8,RREGVYRNNID [PTEN_Y46_L42R],0.517
9,FLNSIYQSRDE [ROS1_Y2227_K2228Q],0.441
10,FSAGTYPRMEE [SYCN_Y108_L111M],0.467
11,PSSNLYFRWLT [CNGA3_Y168_YF],0.959
12,IDAVCYFRMEN [NPHS2_Y194_I192V_YF],0.763
13,HNVAIYEGYAL [ACTC1_Y168_P166A],22.6
14,DEDFLCREELA [POR_Y575_Y575C_YF],0.657
15,YEEDSYSHVMA [FDPS_Y388_I391V],0.65
16,ASTHVYQIMNH [ITK_Y588],0.487
17,EDGFAYVPLKD [PRIM2_Y208],0.649

row,Sequence,phosphorylation enrichment
1,DDSSAYRSVDE [BCKDHA_Y345],0.528
2,ARVDTYCRHNF [HLA-DRB1_Y107_A103R_YF],0.494
3,LTFHMYADPNI [SOS1_Y618_F623I_YF],2.05
4,FGMQLYQKFMH [GRB14_Y347_N349K_YF],0.8
5,ADYYDYGRGLS [KHDRBS3_Y304_H306R],17.4
6,EMFNPCYGLFE [NEDD4L_Y679_Y679C],0.689
7,QGFDTYFGYLL [ARSB_Y165_R160Q],10.3
8,SENYTYIWWLN [PSG4_Y271_K267E],1.24
9,NRLNDYIFSFD [RARS1_Y516],0.538
10,KPLMPYMRYSR [SMARCE1_Y73],0.449
11,RPYRPYIIRGM [LRP5_Y1531],0.842
12,SSWPGYVRPLP [HSPB1_Y54],0.423
13,FRARAYSFRGP [CHGA_Y381_G382S],0.419
14,PQGVGYPPQQQ [EP300_Y2219],0.619
15,RGYRQDAYDGK [HLA-A_Y140],0.546
16,SVTYTYSPALN [TP53_Y126_C124Y],0.87

# Molecular target: FGFR1 (UniProt P11362)
# Sequence (P11362 whole entry, looked up): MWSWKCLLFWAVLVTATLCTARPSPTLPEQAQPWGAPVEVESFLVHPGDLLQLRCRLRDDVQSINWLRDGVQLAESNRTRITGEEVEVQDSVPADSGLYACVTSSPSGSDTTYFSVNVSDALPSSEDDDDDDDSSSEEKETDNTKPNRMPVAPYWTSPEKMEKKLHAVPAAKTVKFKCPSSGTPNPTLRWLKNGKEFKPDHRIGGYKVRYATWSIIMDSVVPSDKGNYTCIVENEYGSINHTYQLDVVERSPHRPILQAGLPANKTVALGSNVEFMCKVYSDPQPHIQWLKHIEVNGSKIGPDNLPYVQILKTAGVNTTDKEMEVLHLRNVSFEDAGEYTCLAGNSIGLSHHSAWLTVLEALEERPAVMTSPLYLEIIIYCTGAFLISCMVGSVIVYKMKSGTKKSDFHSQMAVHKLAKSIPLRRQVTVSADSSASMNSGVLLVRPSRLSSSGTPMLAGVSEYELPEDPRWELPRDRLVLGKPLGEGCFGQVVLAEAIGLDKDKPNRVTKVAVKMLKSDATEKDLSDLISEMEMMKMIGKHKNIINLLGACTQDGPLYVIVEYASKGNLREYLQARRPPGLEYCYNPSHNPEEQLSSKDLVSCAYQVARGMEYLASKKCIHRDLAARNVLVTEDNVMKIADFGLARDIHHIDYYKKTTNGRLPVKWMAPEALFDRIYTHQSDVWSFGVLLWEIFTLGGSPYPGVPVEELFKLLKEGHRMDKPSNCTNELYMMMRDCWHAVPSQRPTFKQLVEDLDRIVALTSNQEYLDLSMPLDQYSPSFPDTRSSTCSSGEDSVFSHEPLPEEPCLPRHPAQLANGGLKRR
# Test: as above
row,Sequence,phosphorylation enrichment
1,LEVETYRRLLD [KRT12_Y429_I426V],0.396
2,KGKLIYLLRDS [NXPE1_Y350_G353R],0.428
3,AAVLNYKAGRD [GRIN2A_Y737],0.382
4,QVMDGYPIPIG [MMP14_Y353_M355I],0.406
5,CSHKFYGKQCC [ADAMTS16_Y1211],0.391
6,MHDSNYVSKGS [PDGFRA_Y849],0.501
7,KDLPNYNWKSF [KISS1_Y112_N115K],0.418
8,RREGVYRNNID [PTEN_Y46_L42R],0.392
9,FLNSIYQSRDE [ROS1_Y2227_K2228Q],0.353
10,FSAGTYPRMEE [SYCN_Y108_L111M],1.12
11,PSSNLYFRWLT [CNGA3_Y168_YF],1.52
12,IDAVCYFRMEN [NPHS2_Y194_I192V_YF],0.986
13,HNVAIYEGYAL [ACTC1_Y168_P166A],0.878
14,DEDFLCREELA [POR_Y575_Y575C_YF],0.572
15,YEEDSYSHVMA [FDPS_Y388_I391V],1.22
16,ASTHVYQIMNH [ITK_Y588],0.508
17,EDGFAYVPLKD [PRIM2_Y208],0.501

row,Sequence,phosphorylation enrichment
1,DDSSAYRSVDE [BCKDHA_Y345],0.569
2,ARVDTYCRHNF [HLA-DRB1_Y107_A103R_YF],0.443
3,LTFHMYADPNI [SOS1_Y618_F623I_YF],1.35
4,FGMQLYQKFMH [GRB14_Y347_N349K_YF],0.454
5,ADYYDYGRGLS [KHDRBS3_Y304_H306R],17.9
6,EMFNPCYGLFE [NEDD4L_Y679_Y679C],0.543
7,QGFDTYFGYLL [ARSB_Y165_R160Q],5.78
8,SENYTYIWWLN [PSG4_Y271_K267E],1.67
9,NRLNDYIFSFD [RARS1_Y516],0.721
10,KPLMPYMRYSR [SMARCE1_Y73],0.449
11,RPYRPYIIRGM [LRP5_Y1531],0.748
12,SSWPGYVRPLP [HSPB1_Y54],0.491
13,FRARAYSFRGP [CHGA_Y381_G382S],0.538
14,PQGVGYPPQQQ [EP300_Y2219],0.897
15,RGYRQDAYDGK [HLA-A_Y140],0.641
16,SVTYTYSPALN [TP53_Y126_C124Y],1.24
